Data taken from patent US20050180952A1, “Methods for intradermal delivery of therapeutics agents” (priority 2003, published 2005).
“Also recorded” adds a separate entry of the source.

Legend:
RSV [1] = experiment: Synagis plaque assay in vitro; type: cell-based; settings: FIG. 8
RSV [2] = experiment: Virus challenge: viable virus in lung homogenates on Hep-2 monolayers; type: in vivo, Mice; settings: single IN dose ~2.25 mg/Kg (15% of dose) 3 hours after infection with 1.3×10^5 PFU, 100 ul per well
Experimental: Mice were challenged with 1.3×10^5 plaque forming units. Three hours after infection a test group was treated with a single dose of Palivizumab IN (˜2.25 mg/Kg) and a control group received saline. Three days after infection, lung tissue was collected and homogenized. The subsequent homogenates were dispensed onto Hep-2 monolayers and the cultures were monitored for evidence of viable virus. The total homogenate volume recovered from each animal was approximately 1.5 to 2 mls and the amount placed in each test well was 100 ul.

B 16F10 melanoma cells [3] = experiment: Effects of routes of IL-12 administration on mortality of tumor-containing mice; type: in vivo, C57BL/6J mice; settings: Day 28
Experimental: (§1) C57BL/6J mice (Charles Rivers Labs, Inc) were inoculated SC with 1×10^6 B 16F10 melanoma cells (ATCC) on the upper right flank. One week following tumor inoculation (Day 7), the mice were randomized and treated with 100 ng rmIL-12 (R&D Systems) in 50 μL PBS solution through either ID or SC injections near tumor inoculation site, or an IP injection (n=25/condition). An additional condition of ID controls was run using 50 μL PBS solution alone. ID treatment was administered with a 34G, 1 mm needle using a modified mantoux method. SC and IP doses were given with standard 25G×¾″ needle. Treatment was continued every other day through Day 13 for a total of four doses. Tumor measurements in mm^2 (length×width) were collected on Days 7, 11, 14, 18, 21, 25 and 28. Blood samples were collected on Days 0, 14, 21 and 28 for IL-12 and IFN-gamma analysis. Draining lymph node and spleen tissue samples were collected from five animals in each condition on Days 14 and 24 for FACS analysis of CD49b (NK) cells. Mortality data were collected on 10 pre-selected animals that were not used for blood sampling or FACS analysis from each condition. Mortality was determined through either natural death or euthanasia due to tumor size of greater than 400 mm^2. Statistical data were calculated using a t-Test: Two-Sample Assuming Unequal Variances. See, e.g., Brunda, M., J. Exp. Med., 178: 1223-1230 (1993) and Leonard et al., Blood, 90: 2541-2548 (1997), both of which are incorporated herein by reference.

B 16F10 melanoma cells [4] = experiment: Effects of routes of IL-12 delivery (ID, SC, IP) on tumor growth, 100 ng dose; type: in vivo, C57BL/6J mice
Experimental: as §1

B16F10 melanoma cells [5] = experiment: Effects of ID and IP delivery on antitumor activity of IL-12 (10 and 100 ng), tumor size; type: in vivo, C57BL Mice; settings: for tumor size increase: by day 21
Experimental: (§2) C57BL Mice were inoculated subcutaneously (SC) with 1 million B16F10 melanoma cells (ATCC, Inc.). Treatment was initiated with IL-12 injections 7 days post-inoculation at two levels (10 and 100 ng) given as either an intraperitoneal (IP) or intradermal (ID) (tumor bearing side) dose. IL-12 doses were repeated every other day for a total of 4 treatments. As a control, the same volume of complete medium (PBS) was injected ID on the tumor bearing side. True negatives were also run in conjunction for serum and tissue samples (n=15/condition). Weights and tumor size were measured on days 7, 11, 14, 18 and 21. Blood samples were also collected at weekly intervals for IL-12 analysis. Two tumor diameters at right angles were measured with digital calipers, and the average tumor size was plotted with respect to days post inoculation with tumor cells.

CD49b (NK) cells = experiment: NK cells count in draining lymph node by FACS analysis; type: in vivo, C57BL/6J mice; settings: ID delivery vs other conditions
Experimental: C57BL/6J mice (Charles Rivers Labs, Inc) were inoculated SC with 1×10^6 B 16F10 melanoma cells (ATCC) on the upper right flank. One week following tumor inoculation (Day 7), the mice were randomized and treated with 100 ng rmIL-12 (R&D Systems) in 50 μL PBS solution through either ID or SC injections near tumor inoculation site, or an IP injection (n=25/condition). An additional condition of ID controls was run using 50 μL PBS solution alone. ID treatment was administered with a 34G, 1 mm needle using a modified mantoux method. SC and IP doses were given with standard 25G×¾″ needle. Treatment was continued every other day through Day 13 for a total of four doses. […] Mortality was determined through either natural death or euthanasia due to tumor size of greater than 400 mm^2. Statistical data were calculated using a t-Test: Two-Sample Assuming Unequal Variances. […]
The right side superficial inguinal draining lymph node (DLN) and the spleen were excised individually from 5 mice per each treatment group into Petri dishes containing cold HBSS (Invitrogen Life Technologies, Carlsbad, Calif.) for the DLN. […] The washed cells were resuspended in 1 ml of cold FacsFlow buffer and kept on ice in the dark until analyzed by flow cytometry using a FACS Vantage SE. Cell analysis was designed to exclude B cells and quantify CD4+ cells, CD8+ cells, and CD49b+ (NK cells). […]

B16F10 melanoma cells [6] = experiment: Effects of site of ID delivery (tumor side vs contralateral side) on antitumor activity of IL-12; type: in vivo, C57BL Mice
Experimental: as §2, with “at” for “at two levels (10 and”, “ng” for “ng)”, “as” for “as either”, “ID dose on the tumor bearing” for “intraperitoneal (IP)”, “contralateral side” for “intradermal (ID) (tumor bearing side)”, “analysis. Draining lymph node and spleen samples were collected at 14 and 24 days for T cell, B cell and NK cell, and GP100 FACS analysis was performed.” for “analysis.”

In the case of “Palivizumab: RSV Specific MAB (Palivizumab), Synagis, humanized antibody”, the “concentration of antibody capable of blocking high numbers of virus” value (RSV [1]) is reported as 6 µg/mL, the “Lung Tissue Collected @ 72 Hours Post Infection (assayed straight), PFU” value (RSV [2]) is reported as “no plaque forming units were observed; also recorded: No PFU Observed” and the “peak lung antibody concentration relative to any other delivery route” value (IN 100 μl group, 15 mg/kg) is reported as “at least 2 times”. The “persistence of IN-delivered antibody in lung” value (IN delivery) was “short lived”.

B1: IL-12: rmIL-12 (R&D Systems), interleukin-12 cytokine given in PBS solution (protein, UniProt P43431 23-215; P43432 23-335, looked up)
Interleukin-12 subunit alpha: RVIPVSGPARCLSQSRNLLKTTDDMVKTAREKLKHYSCTAEDIDHEDITRDQTSTLKTCLPLELHKNESCLATRETSSTTRGSCLPPQKTSLMMTLCLGSIYEDLKMYQTEFQAINAALQNHNHQQIILDKGMLVAIDELMQSLNHNGETLRQKPPVGEADPYRVKMKLCILLHAFSTRVVTINRVMGYLSSA
Interleukin-12 subunit beta: MWELEKDVYVVEVDWTPDAPGETVNLTCDTPEEDDITWTSDQRHGVIGSGKTLTITVKEFLDAGQYTCHKGGETLSHSHLLLHKKENGIWSTEILKNFKNKTFLKCEAPNYSGRFTCSWLVQRNMDLKFNIKSSSSSPDSRAVTCGMASLSAEKVTLDQRDYEKYSVSCQEDVTCPTAEETLPIELALEARQQNKYENYSTSFFIRDIIKPDPPKNLQMKPLKNSQVEVSWEYPDSWSTPHSYFSLKFFVRIQRKKEKMKETEEGCNQKGAFLVEKTSTEVQCKGGNVCVQAQDRYYNSSCSKWACVPCRVRS
In the case of B1, the “survivability compared to delivery through other routes or control” value (B 16F10 melanoma cells [3]; ID delivery) is reported as “greater than 200%”, the surviving animals (B 16F10 melanoma cells [3]; ID delivery 100 ng) is reported as 7 out of 10 and the surviving animals (B 16F10 melanoma cells [3]; IP delivery 100 ng) is reported as 3 out of 10. For the same molecule, the surviving animals (B 16F10 melanoma cells [3]; SC delivery 100 ng) was 3 out of 10, the “Mean (tumor measurement, length x width)” value (B 16F10 melanoma cells [4]; Day 18, ID 100 ng) was 62.29 mm^2 and the “Mean (tumor measurement, length x width)” value (B 16F10 melanoma cells [4]; Day 18, IP 100 ng) was 158.2458 mm^2. The “Mean (tumor measurement, length x width)” value (B 16F10 melanoma cells [4]; Day 18, SC 100 ng) was 199.7379 mm^2, the “Mean (tumor measurement, length x width)” value (B 16F10 melanoma cells [4]; Day 28, ID 100 ng) was 127.2 mm^2 and the “Mean (tumor measurement, length x width)” value (B 16F10 melanoma cells [4]; Day 28, IP 100 ng) was 383.7 mm^2. For the same molecule, the “Mean (tumor measurement, length x width)” value (B 16F10 melanoma cells [4]; Day 28, SC 100 ng) was 352.9 mm^2, the “inhibition of tumor growth” value (B 16F10 melanoma cells [4]; ID delivery, 100 ng, only route with effect (FIG. 1)) was “significant effects on inhibiting the tumor growth” and the average tumor size (B16F10 melanoma cells [5]; 10 ng, ID, Day 11) was 77 mm^2. The average tumor size (B16F10 melanoma cells [5]; 10 ng, ID, Day 14) was 120 mm^2, the “tumor size increase from the previous measurement” value (B16F10 melanoma cells [5]; 10 ng, ID, Day 14) was 56% and the average tumor size (B16F10 melanoma cells [5]; 10 ng, ID, Day 18) was 112 mm^2. For the same molecule, the “tumor size decrease from the previous measurement” value (B16F10 melanoma cells [5]; 10 ng, ID, Day 18) was 6%, the average tumor size (B16F10 melanoma cells [5]; 10 ng, ID, Day 21) was 250 mm^2 and the “tumor size increase from the previous measurement” value (B16F10 melanoma cells [5]; 10 ng, ID, Day 21) was 121%. For the same molecule, the average tumor size (B16F10 melanoma cells [5]; 10 ng, IP, Day 11) was 68 mm^2, the average tumor size (B16F10 melanoma cells [5]; 10 ng, IP, Day 14) was 113 mm^2 and the “tumor size increase from the previous measurement” value (B16F10 melanoma cells [5]; 10 ng, IP, Day 14) was 63%. For the same molecule, the average tumor size (B16F10 melanoma cells [5]; 10 ng, IP, Day 18) was 206 mm^2, the “tumor size increase from the previous measurement” value (B16F10 melanoma cells [5]; 10 ng, IP, Day 18) was 82% and the average tumor size (B16F10 melanoma cells [5]; 10 ng, IP, Day 21) was 262 mm^2. The “tumor size increase from the previous measurement” value (B16F10 melanoma cells [5]; 10 ng, IP, Day 21) was 27%, the “final average ID tumor size smaller than IP” value (B16F10 melanoma cells [5]; 100 ng, Day 21) was 47% and the average tumor size (B16F10 melanoma cells [5]; 100 ng, ID, Day 11) was 54 mm^2. The average tumor size (B16F10 melanoma cells [5]; 100 ng, ID, Day 14) was 75 nm^2, the “tumor size increase from the previous measurement” value (B16F10 melanoma cells [5]; 100 ng, ID, Day 14) was 39% and the average tumor size (B16F10 melanoma cells [5]; 100 ng, ID, Day 21) was 142 mm^2. For the same molecule, the tumor size increase (B16F10 melanoma cells [5]; 100 ng, ID) was 89%, the average tumor size (B16F10 melanoma cells [5]; 100 ng, IP, Day 11) was 70 mm^2 and the average tumor size (B16F10 melanoma cells [5]; 100 ng, IP, Day 14) was 126 mm^2. The “tumor size increase from the previous measurement” value (B16F10 melanoma cells [5]; 100 ng, IP, Day 14) was 80%, the average tumor size (B16F10 melanoma cells [5]; 100 ng, IP, Day 21) was 302 mm^2 and the tumor size increase (B16F10 melanoma cells [5]; 100 ng, IP) was 139%. For the same molecule, the “NK cells in DLN” value (CD49b (NK) cells; Day 14 (one day post regimen)) was “increase in NK cells is apparent”, the “NK cells in DLN” value (CD49b (NK) cells; Day 24) was “relative increase above the other conditions” and the “effectiveness relative to other conditions” value (B16F10 melanoma cells [6]; 100 ng ID contralateral side) was “not as effective as those dosed near the tumor, but were better than the IP condition”. For the same molecule, the tumor size (B16F10 melanoma cells [6]; 100 ng ID contralateral side (IDcs), Day 14) was 75 mm^2, the “overall tumor growth reduction” value (B16F10 melanoma cells [6]; 100 ng ID near the tumor injection site) was “greatest reduction in overall tumor growth” and the tumor size (B16F10 melanoma cells [6]; 100 ng ID tumor side (IDts), Day 14) was 75 mm^2. The tumor size increase (B16F10 melanoma cells [6]; 100 ng IDcs, Day 14 to Day 18) was 91%, the tumor size (B16F10 melanoma cells [6]; 100 ng IDcs, Day 18) was 43 mm^2 and the tumor size increase (B16F10 melanoma cells [6]; 100 ng IDcs, Day 18 to Day 21) was 29%. It also gave a tumor size increase (B16F10 melanoma cells [6]; 100 ng IDts, Day 14 to Day 18) of 68%, a tumor size (B16F10 melanoma cells [6]; 100 ng IDts, Day 18) of 126 mm^2 and a tumor size increase (B16F10 melanoma cells [6]; 100 ng IDts, Day 18 to Day 21) of 14%. The tumor size (B16F10 melanoma cells [6]; 100 ng IDts, Day 21) was 142 mm^2 and the “final tumor size for IDts smaller than IDcs” value (B16F10 melanoma cells [6]; 100 ng, Day 21) was 23%.
